Results: patent US20200040065A1 (INTEGRATED BIOTHERAPEUTICS, published 2020)

Biological target: BDBV GP ectodomain (Bundibugyo virus)

B1: monoclonal antibody CA45 (antibody, V domains shown)
VH: QVQLQEWGEGLVKPSETLSLTCAVYGGSISGYYHWNWIRLPPGKGLEWIGNIDNSASTNYNPSLKTRVTISKDTSKNQISLKVRSLTAADTAVYYCARDPGFTIFGVVITSWSGLDSWGQGAVVTVSS
VL: DIQMTQSPSSLSASVGDTVTITCRASQSISNNLAWYQQRPRRAPQLLIYAASNLASGVPSRFSGSGSGTDFTLTISSLQAEDFAAYYCQQHNTLPLTFGGGTKVEI
**Q.** How did the EC50 turn out when B1 was run?
**A.** Its EC50 is 0.65 to 1.41 nM.
